Substitutions are numbered along the chain they refer to. In names and notes the source's numbering stands.

Data set [1] concerns the molecule itself. Nature of the data set: cryo-EM structure; 2.5 μM clamp loader and 2.2 μM sliding clamp, 1 mM ADP·BeFx, cross-linked with 1 mM BS3; 25 mM HEPES-NaOH pH 8.0, 200 mM NaCl, 4 mM MgCl2, 1 mM TCEP; Semi-Open and Fully-Open states.
Data set [2] concerns the molecule itself. In words: reconstitution and co-elution on anion exchange (HiTrap Q); purified γ (WT or K141A), δ and δ′ (WT or K130A) combined 2.5:1:1, dialysed into Buffer Q-A (50 mM Tris pH 7.5, 50 mM NaCl, 10% glycerol, 2 mM DTT) overnight at 4 °C, eluted from a HiTrap Q column with a NaCl gradient; fractions with the intact complex pooled.

B1: γ subunit of the E. coli clamp loader (residues 1-373) (domain or fragment, UniProt P06710 1-373, looked up)
chain: MSYQVLARKWRPQTFADVVGQEHVLTALANGLSLGRIHHAYLFSGTRGVGKTSIARLLAKGLNCETGITATPCGVCDNCREIEQGRFVDLIEIDAASRTKVEDTRDLLDNVQYAPARGRFKVYLIDEVHMLSRHSFNALLKTLEEPPEHVKFLLATTDPQKLPVTILSRCLQFHLKALDVEQIRHQLEHILNEEHIAHEPRALQLLARAAEGSLRDALSLTDQAIASGDGQVSTQAVSAMLGTLDDDQALSLVEAMVEANGERVMALINEAAARGIEWEALLVEMLGLLHRIAMVQLSPAALGNDMAAIELRMRELARTIPPTDIQLYYQTLLIGRKELPYAPDRRMGVEMTLLRALAFHPRMPLPEPEVPRQ
notes: γ subunit of the E. coli clamp loader, truncated form, residues 1-373; Stands for the single γ subunits within the γ-complex; also called γ protein; B, C and D subunits; source: E. coli BLR21(DE3), purified (HisTrap, Prescission Protease, HisTrap flowthrough); not shown: His6, N-terminal, cleaved
For the protein B1, the binding result in data set [1] is given as “binds”.

B2: γ-K141A (domain or fragment, E. coli, UniProt P06710 1-373, looked up)
chain: B1 chain with K141A
notes: γ subunit of the E. coli clamp loader with K141A; insert bought from Twist Bioscience; the range 1-373 is stated for the γ subunit in general; The limits 1-373 are not repeated for the mutant itself; source: E. coli BLR21(DE3), purified (Nickel NTA agarose, Prescission Protease, HisTrap); not shown: His6, N-terminal, cleaved
Take B2: the binding result in data set [2] was “binds”.

For the origin of these results see paper PMC11044049 (The Journal of Biological Chemistry, 2024).
